The experiment concerns the target C3b C3b (Homo sapiens, UniProt P01024). Briefly: SPR.

C3b C3b, sequence (P01024 566-670): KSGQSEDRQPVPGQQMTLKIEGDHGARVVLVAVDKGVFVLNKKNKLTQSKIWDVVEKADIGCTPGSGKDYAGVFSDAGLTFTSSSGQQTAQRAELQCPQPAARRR

B1: Factor H (protein)
chain: EDCNELPPRRNTEILTGSWSDQTYPEGTQAIYKCRPGYRSLGNVIMVCRKGEWVALNPLRKCQKRPCGHPGDTPFGTFTLTGGNVFEYGVKAVYTCNEGYQLLGEINYRECDTDGWTNDIPICEVVKCLPVTAPENGKIVSSAMEPDREYHFGQAVRFVCNSGYKIEGDEEMHCSDDGFWSKEKPKCVEISCKSPDVINGSPISQKIIYKENERFQYKCNMGYEYSERGDAVCTESGWRPLPSCEEKSCDNPYIPNGDYSPLRIKHRTGDEITYQCRNGFYPATRGNTAKCTSTGWIPAPRCTLKPCDYPDIKHGGLYHENMRRPYFPVAVGKYYSYYCDEHFETPSGSYWDHIHCTQDGWSPAVPCLRKCYFPYLENGYNQNYGRKFVQGKSIDVACHPGYALPKAQTTVTCMENGWSPTPRCIRVKTCSKSSIDIENGFISESQYTYALKEKAKYQCKLGYVTADGETSGSITCGKDGWSAQPTCIKSCDIPVFMNARTKNDFTWFKLNDTLDYECHDGYESNTGSTTGSIVCGYNGWSDLPICYERECELPKIDVHLVPDRKKDQYKVGEVLKFSCKPGFTIVGPNSVQCYHFGLSPDLPICKEQVQSCGPPPELLNGNVKEKTKEEYGHSEVVEYYCNPRFLMKGPNKIQCVDGEWTTLPVCIVEESTCGDIPELEHGWAQLSSPPYYYGDSVEFNCSESFTMIGHRSITCIHGVWTQLPQCVAIDKLKKCKSSNLIILEEHLKNKKEFDHNSNIRYRCRGKEGWIHTVCINGRWDPEVNCSMAQIQLCPPPPQIPNSHNMTTTLNYRDGEKVSVLCQENYLIQEGEEITCKDGRWQSIPLCVEKIPCSQPPQIEHGTINSSRSSQESYAHGTKLSYTCEGGFRISEENETTCYMGKWSSPPQCEGLPCKSPPEISHGVVAHMSDSYQYGEEVTYKCFEGFGIDGPAIAKCLGEKWSHPPSCIKTDCLSLPSFENAIPMGEKKDVYKAGEQVTYTCATYYKMDGASNVTCINSRWTGRPTCRDTSCVNPPTVQNAYIVSRQMSKYPSGERVRYQCRSPYEMFGDEEVMCLNGNWTEPPQCKDSTGKCGPPPPIDNGDITSFPLSVYAPASSVEYQCQNLYQLEGNKRITCRNGQWSEPPKCLHPCVISREIMENYNIALRWTAKQKLYSRTGESVEFVCKRGYRLSSRSHTLRTTCWDGKLEYPTCAKR
For orientation: Kd means the equilibrium constant for the complex coming apart. Lower therefore signals a tighter complex. Consider B1, for which binding was characterised by a dissociation constant (Kd) of 100 nM.

(Values after article PMC7417313 (2020).)
